Tested on: MS2 coat protein
Assay: apparent KD of MS2 coat protein; designed switch direction (-1 OFF switch, 1 ON switch): -1; higher = weaker reporter binding
Outline: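 On Illumina chips, designed RNA switches with common flanks were made by stalled E. coli RNA polymerase. Titrations with SNAP-549-labelled MS2 coat protein, doubling from 0.7 or 1.5 nM to 3 µM, were done with no input, with 200 uM small-molecule ligand, or with an oligonucleotide input. Apparent KD is the median per design over clusters, from curve fits of normalised cluster fluorescence.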

[1] = input ligand: microRNA oligo, concentration not stated
[2] = Eterna round: R95, input ligand: FMN 200 uM
[3] = Eterna round: R95, input ligand: microRNA oligo, concentration not stated
[4] = Eterna round: R95, input ligand: none

Sequence	apparent KD of MS2 coat protein (input ligand: FMN 200 uM) [nM]	apparent KD of MS2 coat protein [1] [nM]	apparent KD of MS2 coat protein (input ligand: none) [nM]	apparent KD of MS2 coat protein [2] [nM]	apparent KD of MS2 coat protein [3] [nM]	apparent KD of MS2 coat protein [4] [nM]
AUCCGUUGUAUAGGAUAUAAGUGUAAACUGUACUUAGAAGGAUACAUGAGGAUCACCCAUGUUGUAAUAGAUGAGCAUAGAGCA [Eternabot solution 6] (Eterna round: R96, puzzle: Exclusion NG 1)	52.2	24.1	30.2			
AUCGUACUAGGAUAUUCGGAAACGGACAUGAGGAUCACCCAUGUGAAUAUCCGCAGUCCAGAAGAAGGAGUGAACG [EX5 C.27] (Eterna round: R97, puzzle: Exclusion 5)	33.5		17.9			
AUCGUGCAGCUUUGCUGUACGAGUACAUGAGGAUCACCCAUGUAGGAUAUGGUACGCUUUGCGUGCUAGAAGGAUAUGCGAUUU [EX ENG3 1.47] (Eterna round: R96, puzzle: Exclusion NG 3)	31.4	23.9	34.6			
AUGAAAGUAGGAUAUCGACUGAUUGACAUGAGGAUCACCCAUGUGGUUCUGUGCGGUGUUCGAGAAGGGCUAAGAU [Mageer] (puzzle: Exclusion 5)				23.1	15.7	20.9
AUGCCGGUCCUCUCAGGUGUACAUGAGGAUCACCCAUGUCACGAGGAUAUCUAAGCGUGGUGGCCAGAGAAGGUGUGACAUGCU [Atibequ] (Eterna round: R96, puzzle: Exclusion NG 3)	38.7	17.2	22.8			
AUGUUAUUCUGAGGAUAUUGUUUAAUCCUCUCACAUGAGGAUCACCCAUGUUUCCGUGUUUACCGCAAGAAGGCAGUUUUGUUU [JR_ExcNG2_Sub026] (Eterna round: R96, puzzle: Exclusion NG 2)	63.6	48.7	61.8			
AUGUUAUUCUGAGGAUAUUGUUUAUUCUUCUCACAUGAGGAUCACCCAUGUUUCCGUGUUUACCGCAAGAAGGCAGUUUUGUUU [JR_ExcNG2_Sub027] (Eterna round: R96, puzzle: Exclusion NG 2)		22.1				
AUUACGCAGUAGGAUAUGGGCGGUGAGCACCGUCCAGAAGGACUGACAUGAGGAUCACCCAUGUCCUCCCACAC [Eternabot (L2) Solution 42] (Eterna round: R97, puzzle: Exclusion 6)	497		55.8			
AUUAGUAUCUAGGAUAUCUAGUACAUAGUAUCUAGAGAAGGAGAUACAUGAGGAUCACCCAUGUUCUGUGAUCU [Exclusion 6 - 2:a] (puzzle: Exclusion 6)					155	
AUUAUGUAAGGAUAUCUUACAUGUGACUUCGGUCACUGUCAAGAGAAGGUACAUGAGGAUCACCCAUGUAUGAC [Ex4-3: 49] (puzzle: Exclusion 4)					14.2	
AUUAUGUUAGGAUAUGCUUAUGGUGGAUAGUCCAAUGUGGUGCAGAAGGGACAUGAGGAUCACCCAUGUGCUGA [EX4 #30] (Eterna round: R97, puzzle: Exclusion 4)	92.3		57.5			
AUUAUUUAAGUCAGGAUAUCGUAUUUAAUUAAAUACGAGAAGGGACAUGAGGAUCACCCAUGUAAUAAAUUUUA [JMFs Solution 1] (puzzle: Brourd's mod of Exclusion 4)				24.1	14.2	15.9
AUUAUUUCAGGAUAUGCCUUCAAAGACAUGAGGAUCACCCAUGUUUUCAGUGGCAGGAUCGCAGAAGGGAGAUAUU [EX5 C.29] (Eterna round: R97, puzzle: Exclusion 5)	15.6		14.4			
AUUGGACACUCAGGAUAUCAGGUUCUAUACAUGAGGAUCACCCAUGUGGGCGAACCCAUGAUAGCUGAGAAGGGAGUAAUCCUA [Orxete] (Eterna round: R96, puzzle: Exclusion NG 2)	39	11.9	19.4			
AUUGUAUGGGAAGGAUAUAGAAUAUUAUUUUAACAUGAGGAUCACCCAUGUAACCUUAUGUGUAGCUAGAAGGUCCGUUUGUUA [Title] (Eterna round: R96, puzzle: Exclusion NG 2)		269				
AUUGUGUGAGGAUAUUAAUAGUAAAUGAAUAGAAUUAUGAUUGAGAAGGCACAUGAGGAUCACCCAUGUUCCUU [JR_Ex4_Sub081] (Eterna round: R97, puzzle: Exclusion 4)	17.8		19.6			
AUUGUGUUAGGAUAUGCUUAUGGUGGGUAGUCCAGUAUGAAGUAGAAGGGACAUGAGGAUCACCCAUGUGCUGA [EX4 #36] (Eterna round: R97, puzzle: Exclusion 4)	136		164			

Sequence	apparent KD of MS2 coat protein (input ligand: FMN 200 uM) [nM]	apparent KD of MS2 coat protein [1] [nM]	apparent KD of MS2 coat protein (input ligand: none) [nM]	apparent KD of MS2 coat protein [2] [nM]	apparent KD of MS2 coat protein [3] [nM]	apparent KD of MS2 coat protein [4] [nM]
AUUUAAUUUAAUAAGAUCACAUGAGGAUCACCCAUGUUAUAAUAGGAUAUCAGCUCGUUUAGAGCUGAGAAGGAUUAUAACAUG [ExNG3/9-A2] (Eterna round: R96, puzzle: Exclusion NG 3)	31.8	20.8	7.21			
AUUUAAUUUAGCGAGAUCACAUGAGGAUCACCCAUGUAUAUAUAGGAUAUCAGCUCGAAUAGAGCUGAGAAGGAUAUAUACCGC [ExNG3/7-A4] (Eterna round: R96, puzzle: Exclusion NG 3)		76.7				
AUUUAGAGAGGAUAUAUAAUGUGAAACAUGAGGAUCACCCAUGUAAUAUUAUGGAUGUAAAUAGAAGGCUCAUUUA [Mat - Exclusion 5 - JL mod - D5] (puzzle: Exclusion 5)					30.2	
AUUUAGCAAGUUAGAUCCUACAUGAGGAUCACCCAUGUUGUUCGUCUCAUUUGAAGACAACACAAAAGUGUUGUCUU [Omei Mir OFFv1 B4] (Eterna round: R97, puzzle: Sensor, turn-off variant 1)	112		126			
AUUUAGCGAGGAUAUACCAACGUGAUCUUCGACUGAGCGGCACUUGAGGAUCACCCAAGUAGAAGGCGCACUAU [Onleindian] (Eterna round: R97, puzzle: Exclusion 2)	346		207			
AUUUGCACGCUGCGGUCCUACAUGAGGAUCACCCAUGUGGUCUGGUGGCGUGGGUCGCCGGACUUGGCUCGUCUUGU [salish99_S_TOV1_R5_033] (Eterna round: R97, puzzle: Sensor, turn-off variant 1)	18.7		19.5			
AUUUUAUAUGAAGGAUAUACUUAACAUGAGGAUCACCCAUGUGGUGUUGUGAGUGAGUGAGUUUAGUAGAAGGUCAAUUAUUUU [JMF's solution 32] (Eterna round: R96, puzzle: Exclusion NG 2)	781	167	257			
AUUUUGUCAGGAUAUGAGUAGUAGGAUGAGAGUGCUACUACUUAGAAGGGACAUGAGGAUCACCCAUGUCUUCC [Bring Us a Shrubbery-06] (puzzle: Exclusion 4)					13.8	
AUUUUGUGAGGAUAUGUGGCUUCGAUCGUAAAAACGAGGCUACAGAAGGCACAUGAGGAUCACCCAUGUUCCUA [salish99_ex4_r4_119] (Eterna round: R97, puzzle: Exclusion 4)	194		24			
CAAAACCUAGGAUAUACAUGAGGAUCACCCAUGUCGGGCCUACGCGAAACGCGCCUCAGUAGAAGGAGGGAAAC [Riri] (puzzle: Exclusion 3)				180	46.8	70.5
CAAAAGGUAGGAUAUACGAAAAAAAAGGGUAGAAAAAAAACACAUGAGGAUCACCCAUGUAGAAGGACCAAAAG [salish99_ex2_r3_053] (puzzle: Exclusion 2)				71.2	24.9	22.2
CAAGAAAAGAAAGGAUAUAGCGCGGAGCCGCAGCUAGAAGGUUCGGUGGGUAUCCUGUAACAUGAGGAUCACCCAUGUAAAGAG [Texelara] (Eterna round: R96, puzzle: Exclusion NG 1)	499	109	527			
CAAUAUUACUGAGGAUAUCCUAUUGUAUUUCAGGGAGAAGGCAGACUCAACAUGAGGAUCACCCAUGUAAGACGGGUACUAGAU [Ex NG1 #18] (Eterna round: R96, puzzle: Exclusion NG 1)	97	77.4	98.2			
CACAAGCUUUUUUGUUGCUUUUUAGUUGGUGUAUGAUAAACAUGAGGAUCACCCAUGUAAUAGAUGCUCGAUCUUUU [JR_SV3TOV2_Sub083] (puzzle: Sensor v3, turn-off variant 2)				24.5	21.7	27
CACCGUUACAGAGGAUAUGGUACAUGAGGAUCACCCAUGUAAUAAAUGAGAAUUUCGAAUGUAAUCCAGAAGGCUGGAAUCGGC [Ostricism 74 - Jieux - Exclusion NG 2] (Eterna round: R96, puzzle: Exclusion NG 2)	228	85.2	96.3			
CACCGUUACCGAGGAUAUCGUACAUGAGGAUCACCCAUGUAAUAAAUGAGAAUUUCGGAUGUAUGCGAGAAGGCGGGAAUCGGC [Ostracism 35 - Jieux - Exclusion NG 2] (Eterna round: R96, puzzle: Exclusion NG 2)		24.8				
CACCGUUAGCGAGGAUAUCGUACAUGAGGAUCACCCAUGUAAUAAAUGAGAAUUUCGGAUGUAUGCGAGAAGGCGCGAAUCGGC [Ostracism 34 - Jieux - Exclusion NG 2] (Eterna round: R96, puzzle: Exclusion NG 2)		36.6				

Source: the supplement of paper PMC9170038
